Experimental data published in IntAct's records for PubMed 16228008.

B1: E3 ubiquitin-protein ligase CBL-B (Homo sapiens), Q13191-1 (parent)
chain: MANSMNGRNPGGRGGNPRKGRILGIIDAIQDAVGPPKQAAADRRTVEKTWKLMDKVVRLCQNPKLQLKNSPPYILDILPDTYQHLRLILSKYDDNQKLAQLSENEYFKIYIDSLMKKSKRAIRLFKEGKERMYEEQSQDRRNLTKLSLIFSHMLAEIKAIFPNGQFQGDNFRITKADAAEFWRKFFGDKTIVPWKVFRQCLHEVHQISSGLEAMALKSTIDLTCNDYISVFEFDIFTRLFQPWGSILRNWNFLAVTHPGYMAFLTYDEVKARLQKYSTKPGSYIFRLSCTRLGQWAIGYVTGDGNILQTIPHNKPLFQALIDGSREGFYLYPDGRSYNPDLTGLCEPTPHDHIKVTQEQYELYCEMGSTFQLCKICAENDKDVKIEPCGHLMCTSCLTAWQESDGQGCPFCRCEIKGTEPIIVDPFDPRDEGSRCCSIIDPFGMPMLDLDDDDDREESLMMNRLANVRKCTDRQNSPVTSPGSSPLAQRRKPQPDPLQIPHLSLPPVPPRLDLIQKGIVRSPCGSPTGSPKSSPCMVRKQDKPLPAPPPPLRDPPPPPPERPPPIPPDNRLSRHIHHVESVPSRDPPMPLEAWCPRDVFGTNQLVGCRLLGEGSPKPGITASSNVNGRHSRVGSDPVLMRKHRRHDLPLEGAKVFSNGHLGSEEYDVPPRLSPPPPVTTLLPSIKCTGPLANSLSEKTRDPVEEDDDEYKIPSSHPVSLNSQPSHCHNVKPPVRSCDNGHCMLNGTHGPSSEKKSNIPDLSIYLKGDVFDSASDPVPLPPARPPTRDNPKHGSSLNRTPSDYDLLIPPLGEDAFDALPPSLPPPPPPARHSLIEHSKPPGSSSRPSSGQDLFLLPSDPFVDLASGQVPLPPARRLPGENVKTNRTSQDYDQLPSCSDGSQAPARPPKPRPRRTAPEIHHRKPHGPEAALENVDAKIAKLMGEGYAFEEVKRALEIAQNNVEVARSILREFAFPPPVSPRLNL
partner: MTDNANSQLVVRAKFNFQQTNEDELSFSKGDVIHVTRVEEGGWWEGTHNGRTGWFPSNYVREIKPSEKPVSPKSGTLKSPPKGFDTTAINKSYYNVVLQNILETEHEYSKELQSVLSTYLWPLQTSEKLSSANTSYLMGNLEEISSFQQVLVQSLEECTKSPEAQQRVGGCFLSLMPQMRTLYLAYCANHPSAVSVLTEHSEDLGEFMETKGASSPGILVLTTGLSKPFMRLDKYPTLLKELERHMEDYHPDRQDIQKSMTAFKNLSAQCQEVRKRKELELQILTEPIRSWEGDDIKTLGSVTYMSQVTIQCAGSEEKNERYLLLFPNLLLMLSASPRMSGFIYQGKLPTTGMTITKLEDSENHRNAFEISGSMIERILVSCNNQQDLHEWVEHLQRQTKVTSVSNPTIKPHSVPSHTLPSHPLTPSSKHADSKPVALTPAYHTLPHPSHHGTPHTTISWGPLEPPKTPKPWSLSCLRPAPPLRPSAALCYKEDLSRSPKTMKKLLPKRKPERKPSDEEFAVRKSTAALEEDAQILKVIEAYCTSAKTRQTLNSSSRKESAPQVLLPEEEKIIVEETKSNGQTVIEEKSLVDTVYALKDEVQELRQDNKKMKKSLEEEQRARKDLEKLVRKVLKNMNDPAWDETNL

Variants of: B1
Conditions: with arhg7_rat Arhgef7, O55043

Which “effect of a mutation on the interaction” value does the source give for R904A here?
Its value is “decreasing interaction strength”.
